Experimental data published in US20170165339A1 (IMMATICS BIOTECHNOLOGIES, published 2017).

Target: HLA-A*02 (human)
Assay: UV peptide-exchange ELISA, yield grade

SLTEVSLPL [SLTEVSLPL (SEQ ID NO: 45)] showed a peptide exchange yield of 50 to 75%.
